Earlier results as cited in publication PMC4856733.

Target: vinculin tail tail (Homo sapiens) (UniProt P18206)

## vinculin head head (from UniProt P18206)
  Kd: < 1 nM
